From article PMC7703752, “Proteome-level assessment of origin, prevalence and function of leucine-aspartic acid (LD) motifs” (Bioinformatics, 2019) come the findings set out here.

For assay [1], the target named is T1, Human α-parvin-CHC (residues 242–372) (human, UniProt Q9NVD7 242-372).
T1 construct: α-parvin, human, second CH domain (CHC), residues 242-372; Purification and fate of the GST are told only in the Supplementary Material and in the cited work (Lorenz et al., 2008); also called second CH domain of α-parvin; source: E. coli BL21, expressed as GST-fusion protein
T1 sequence (looked up): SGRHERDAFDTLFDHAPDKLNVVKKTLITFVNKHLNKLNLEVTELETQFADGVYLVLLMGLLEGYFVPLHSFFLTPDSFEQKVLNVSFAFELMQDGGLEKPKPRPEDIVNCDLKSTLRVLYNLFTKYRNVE
In words: fluorescence polarisation + MST + ITC + other: differential scanning fluorimetry; synthesized peptides against recombinant LDBDs in vitro; direct anisotropy with labelled candidate peptides, anisotropy competition of unlabelled peptides against fluorescently labelled known LD motifs, ITC, MST and DSF summed up together; 25°C, 20 mM HEPES pH 7.5, 150 mM NaCl, 2 mM EDTA, 1 mM TCEP, unless stated otherwise. To be noted: both partners purified. A general note: Polarisation of emitted light reports the rotation of a fluorescent probe.

Assay [2] has as its target T2, Human α-parvin-CHC (residues 242–372) (human, UniProt Q9NVD7 242-372).
T2 chain: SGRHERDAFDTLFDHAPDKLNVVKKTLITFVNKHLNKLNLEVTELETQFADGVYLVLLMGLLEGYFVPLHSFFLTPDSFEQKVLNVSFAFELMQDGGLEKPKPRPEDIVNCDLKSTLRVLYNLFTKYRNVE
Nature of the assay: FP.

Assay [3] has as its target T3, FAT domain of human FAK (892–1052) (human, UniProt Q05397 892-1052).
T3 chain: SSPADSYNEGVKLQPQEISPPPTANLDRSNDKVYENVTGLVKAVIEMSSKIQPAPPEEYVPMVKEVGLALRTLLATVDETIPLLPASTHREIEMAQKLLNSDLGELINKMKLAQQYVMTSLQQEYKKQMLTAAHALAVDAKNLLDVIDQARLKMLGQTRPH
In words: FP.

The target in assay [4] is T3, FAT domain of human FAK (892–1052). Nature of the assay: ITC. Background: Isothermal titration calorimetry measures the heat released or taken up as one component is titrated into another.
Assay [5] has as its target T2, Human α-parvin-CHC (residues 242–372). Nature of the assay: MST.
Assay [6] concerns the target T3, FAT domain of human FAK (892–1052). Nature of the assay: MST.
Assay [7] concerns the target T4, Human α-parvin-CHC (residues 242-372) (human, UniProt Q9NVD7 242-372).
T4 construct: α-parvin, human, C-terminal CH domain, residues 242-372; also called second CH domain of α-parvin; source: E. coli BL21, expressed as GST-fusion protein (pGex 6P1), purified as described previously (Lorenz et al., 2008)
T4 sequence (looked up): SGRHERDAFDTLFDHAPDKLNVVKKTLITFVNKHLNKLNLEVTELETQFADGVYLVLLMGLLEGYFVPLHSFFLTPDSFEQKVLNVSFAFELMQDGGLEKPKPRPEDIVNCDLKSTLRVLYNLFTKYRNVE
In words: fluorescence polarisation + MST; the 'quantitative' methods, summed up in one sentence for each peptide: direct anisotropy (protein serially diluted, FITC-Ahx peptide 0.1 μM; 20 mM HEPES pH 7.5, 150 mM NaCl, 2 mM EDTA, 2 mM DTT, 0.005% Tween-20; room temperature) and MST (protein diluted from 560 μM FAT or 530 μM α-parvin, labelled peptide 0.1 μM, 0.05% Tween-20, 25 °C); ITC in selected cases. To be noted: both partners purified.

Assay [8] addresses T5, FAT domain of human FAK (892-1052) (human, UniProt Q05397 892-1052).
T5 construct: focal adhesion kinase (FAK), human, FAT domain, residues 892-1052; 15N-labelled (M9 minimal medium) in the NMR titrations; also called FAK FAT; focal adhesion targeting domain; source: E. coli BL21, expressed as GST-fusion protein (pGexP2), purified as described previously (Arold et al., 2002)
T5 sequence (looked up): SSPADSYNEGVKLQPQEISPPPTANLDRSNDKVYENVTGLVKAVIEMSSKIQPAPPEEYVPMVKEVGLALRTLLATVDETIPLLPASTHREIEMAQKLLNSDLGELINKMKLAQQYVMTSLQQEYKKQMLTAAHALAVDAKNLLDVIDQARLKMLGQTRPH
The assay is described as above. To be noted: both partners purified.

Assay [9] deals with T4, Human α-parvin-CHC (residues 242-372). In words: fluorescence polarisation + other: differential scanning fluorimetry; the 'qualitative' methods, summed up in one sentence for each peptide: anisotropy competition (unlabelled peptide at 100 and 250 μM against 0.1 μM FITC-Ahx-LD4 with 10 μM FAT or 25 μM α-parvin) and DSF (10 μM protein, peptide at 100 and 250 μM; 20 mM HEPES pH 7.5, 150 mM NaCl, 2 mM EDTA, 1 mM TCEP). To be noted: both partners purified.

In assay [10] the target is T5, FAT domain of human FAK (892-1052). Described as above. To be noted: both partners purified.
In assay [11] the target is T4, Human α-parvin-CHC (residues 242-372). Described as above. To be noted: both partners purified. The source holds these as a separate data set.
The target of assay [12] is T5, FAT domain of human FAK (892-1052). The assay is described as above. To be noted: both partners purified. The source holds these as a separate data set.
Assay [13] shares this target. Nature of the assay: fluorescence polarisation + MST; the 'quantitative' methods, summed up in one sentence for each peptide: direct anisotropy (protein serially diluted, FITC-Ahx peptide 0.1 μM; 20 mM HEPES pH 7.5, 150 mM NaCl, 2 mM EDTA, 2 mM DTT, 0.005% Tween-20; room temperature) and MST (protein diluted from 560 μM FAT or 530 μM α-parvin, labelled peptide 0.1 μM, 0.05% Tween-20, 25 °C); ITC in selected cases. To be noted: both partners purified. The source holds these as a separate data set.

Assay [14] addresses T6, FAT domain of human FAK (892–1052) (human, UniProt Q05397 892-1052).
T6 construct: focal adhesion kinase (FAK), human, FAT domain, residues 892-1052; 15N-labelled for the NMR titrations; Purification and fate of the GST are told only in the Supplementary Material and in the cited work (Arold et al., 2002); also called FAK FAT; four-helix FAT domain from FAK; source: E. coli BL21, expressed as GST-fusion protein
T6 sequence (looked up): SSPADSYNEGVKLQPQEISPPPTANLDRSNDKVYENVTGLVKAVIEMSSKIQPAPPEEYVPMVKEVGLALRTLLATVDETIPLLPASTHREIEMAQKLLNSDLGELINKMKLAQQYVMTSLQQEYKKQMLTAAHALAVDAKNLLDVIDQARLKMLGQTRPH
In words: fluorescence polarisation + MST + ITC + other: differential scanning fluorimetry; synthesized peptides against recombinant LDBDs in vitro; direct anisotropy with labelled candidate peptides, anisotropy competition of unlabelled peptides against fluorescently labelled known LD motifs, ITC, MST and DSF summed up together; 25°C, 20 mM HEPES pH 7.5, 150 mM NaCl, 2 mM EDTA, 1 mM TCEP, unless stated otherwise. To be noted: both partners purified.

As usually defined, the Kd is the free concentration of one partner at which half of the binding sites on the other are occupied at equilibrium, for simple one-to-one binding. Read a high Kd as lower affinity.

Where no end group is shown, it is not given here. The star is where a group is joined. FITC = O=C1OC2(c3ccc(O)cc3Oc3cc(O)ccc32)c2ccc(NC(=S)*)cc21; Ahx = NCCCCCC(=O)O

B1: LPP (Lipoma-preferred partner) LD motif peptide (peptide)
peptide: AEIDSLTSILADLESS
modifications: also: N-terminal FITC-Ahx only in labelled form
notes: predicted LD motif of human LPP (Lipoma-preferred partner); source: synthetic peptide, bought: GenScript
As to B1, the binding result in assay [1] is given as “binds”.

Turning to SASSATRELDELMASLSD (also: N-terminal FITC-Ahx only in labelled form) [Paxillin LD4 peptide], the Kd in [2] turned out to be 24.5 µM; in [3], 7.1 µM; in assay [4], 19.7 µM; in assay [5], 3.1 µM; in assay [6] it was 55.5 µM.

Consider DAALDDLIDTLGGP (also: N-terminal FITC-Ahx only in labelled form) [CAST LD motif peptide], for which the Kd in assay [5] was determined as 273 µM; in assay [6], 178 µM.

Turning to SELDNLEEILDDLQNSQ (also: N-terminal FITC-Ahx only in labelled form) [NCOA2 (nuclear receptor coactivator 2) LD motif peptide], in assay [5], binding was put at a Kd of 251 µM.

DPTRDLKQLLQELRSVIN (also: N-terminal FITC-Ahx only in labelled form) [CCDC158 (Coiled-coil domain-containing protein 158) LD motif peptide] came in with a Kd in assay [3] of 41.6 µM.

Take SDWEVDDLLCSLLSPPA (also: N-terminal FITC-Ahx only in labelled form) [CREB3 LD motif peptide]: the Kd was determined as 101 µM in assay [2] and 110 µM in assay [5].

B2: PPP2R3A LD motif peptide, FITC-Ahx-labelled (peptide)
peptide: {FITC-Ahx}-SQEEIDKLLMDLESFSQ
notes: Serine/threonine-protein phosphatase 2A regulatory subunit B'' subunit alpha, human; core motif 508-517; labelled form, used in direct anisotropy and MST; source: synthetic peptide, bought: GenScript
For the molecule B2, the binding result in assay [7] and in [8] was “binds” throughout.

Consider AEIDSLTSILADLESS (also: also used as N-terminal FITC-Ahx-labelled form), for which the Kd in assay [3] came out at 97.4 µM; in assay [5], 169 µM.

B3: CCDC158 LD motif peptide, unlabelled (peptide)
peptide: DPTRDLKQLLQELRSVIN
notes: core motif 903-912; form without label, used in ACA, DSF and NMR; also called CD158; source: synthetic peptide, bought: GenScript
Regarding B3, the binding result in assay [9] and in [10] was “binds” each time.

As to SQEEIDKLLMDLESFSQ (also: N-terminal FITC-Ahx only in labelled form) [PPP2R3A LD motif peptide], the Kd in assay [2] stood at 23.3 µM; in assay [3], 41 µM; in [4], 19.7 µM; in assay [6], 90 µM.

B4: LPP LD motif peptide, FITC-Ahx-labelled (peptide)
peptide: {FITC-Ahx}-AEIDSLTSILADLESS
notes: Lipoma-preferred partner, human; core motif 123-132; labelled form, used in direct anisotropy and MST; source: synthetic peptide, bought: GenScript
On to B4, for which the binding result in [7] and in [8] was “binds” each time.

B5: PPP2R3A LD motif peptide, unlabelled (peptide)
peptide: SQEEIDKLLMDLESFSQ
notes: Serine/threonine-protein phosphatase 2A regulatory subunit B'' subunit alpha, human; core motif 508-517; form without label, used in ACA, DSF and ITC; source: synthetic peptide, bought: GenScript
As to B5, the binding result in assay [11] and in assay [12] was “binds” each time.

B6: EPB41L5 LD motif peptide, FITC-Ahx-labelled (peptide)
peptide: {FITC-Ahx}-ATDELDALLASLTENLID
notes: Band 4.1-like protein 5, human; core motif 634-643; labelled form, used in direct anisotropy and MST; also called E41L5; source: synthetic peptide, bought: GenScript
Consider B6, for which the binding result in [7] and in assay [8] was “binds” each time.

B7: RALGAPA1 LD motif peptide, unlabelled (peptide)
peptide: EDVLDELLQYLGVT
notes: core motif 1680-1689; form without label, used in ACA and DSF; also called RGPA1; source: synthetic peptide, bought: GenScript
On to B7, for which the binding result in assay [11] and in assay [12] was “binds” throughout.

B8: EPB41L5 LD motif peptide, unlabelled (peptide)
peptide: ATDELDALLASLTENLID
notes: Band 4.1-like protein 5, human; core motif 634-643; form without label, used in ACA, DSF and ITC; also called E41L5; Band 4.1-like protein 5 peptide; source: synthetic peptide, bought: GenScript
Regarding B8, the binding result in assay [11] and in assay [12] was “binds” in each case.

B9: CCDC158 LD motif peptide, FITC-Ahx-labelled (peptide)
peptide: {FITC-Ahx}-DPTRDLKQLLQELRSVIN
notes: core motif 903-912; labelled form, used in direct anisotropy and MST; also called CD158; source: synthetic peptide, bought: GenScript
In the case of B9, the binding result in assay [13] is listed as “binds”.

The molecule GDLDNLDAILGDLTSSD (also: N-terminal FITC-Ahx only in labelled form) [NCOA3 (nuclear receptor coactivator 3) LD motif peptide] yielded a Kd in [6] of 261 µM.

B10: LPP LD motif peptide, unlabelled (peptide)
peptide: AEIDSLTSILADLESS
notes: Lipoma-preferred partner, human; core motif 123-132; form without label, used in ACA, DSF and NMR; also called lipoma-preferred partner peptide; source: synthetic peptide, bought: GenScript
Take B10: in [11], the binding result is listed as “binds”.

B11: C16orf71 LD motif peptide (peptide)
peptide: EAWDLDDILQSLQGQ
modifications: also: N-terminal FITC-Ahx only in labelled form
notes: predicted LD motif of human C16orf71; also called CP071; source: synthetic peptide, bought: GenScript
For B11, the Kd in [2] was found to be 52 µM; in [5], 32.3 µM; in [6], 17.2 µM. Moreover, the binding result in assay [1] and in assay [14] was “binds” throughout.
